Experimental data taken from publication PMC11480844 (2024).

B1: H2-Kb / Ed31 (parent complex)
chain 1: GQQVQQSPASLVLQEGENAELQCNFSTSLNSMQWFYQRPGGSLVSLFYNPSGTKHSGRLTSTTVIKERRSSLHISSSQTTDSGTYLCALEGNYAQGLTFGLGTRVSVFP
chain 2: ETAVFQTPNYHVTQVGNEVSFNCKQTLGHDTMYWYKQDSKKLLKIMFSYNNKQLIVNETVPRRFSPQSSDKAHLNLRIKSVEPEDSAVYLCASRSAGEQYFGPGTRLTVL
chain 3: not shown
chain 4: IQKTPQIQVYSRHPPENGKPNILNCYVTQFHPPHIEIQMLKNGKKIPKVEMSDMSFSKDWSFYILAHTEFTPTETDTYACRVKHDSMAEPKTVYWDRDM
chain 5: SIINFEKL
B2: H2-Kb / Ed46 (parent complex)
chain 1: AQSVTQPDARVTVSEGASLQLRCKYSYFGTPYLFWYVQYPRQGLQLLLKYYPGDPVVQGVNGFEAEFSKSNSSFHLRKASVHWSDWAVYFCAVGRTGGYKVVFGSGTRLLVSP
chain 2: DSGVVQSPRHIIKEKGGRSVLTCIPISGHSNVVWYQQTLGKELKFLIQHYEKVERDKGFLPSRFSVQQFDDYHSEMNMSALELEDSAMYFCASSPRHSDYTFGSGTRLLVI
chain 3: not shown
chain 4: B1 chain 4
chain 5: SIINFEKL

Variants of: B1
Experiment: % of reporter cells activated (NFAT-GFP), raw
Note: test concentration or dose not given here.

Variant	ratio to parent
chain 5 I3D	0.375
chain 5 S1Q	0.757
chain 5 L8C	0.602
chain 5 S1N	0.163
chain 5 F5G	0.529
chain 5 E6M	0.25
chain 5 K7M	0.104
chain 5 I2Q	0.897
chain 5 L8V	0.812
chain 5 E6R	0.00349
chain 5 F5H	0.892
chain 5 F5W	0.829
chain 5 I2R	0.851
chain 5 E6A	0.0173
chain 5 L8E	0.687
chain 5 F5L	0.821
chain 5 F5V	0.859
chain 5 L8P	0.779
chain 5 I3V	0.982
chain 5 S1M	0.898
chain 5 F5M	0.917
chain 5 N4F	0.127
chain 5 I3W	0.355
chain 5 I2C	1.07
chain 5 S1W	0.498
chain 5 I2W	0.863

Variants of: B2
Experiment: % of reporter cells activated (NFAT-GFP), raw

Variant	ratio to parent
chain 5 S1H	0.973
chain 5 I3E	0.47
chain 5 N4Y	0.0186
chain 5 I2F	1.13
chain 5 I2N	0.898
chain 5 I3R	0.245
chain 5 K7E	0.00395
chain 5 I3D	0.17
chain 5 S1N	0.0395
chain 5 F5S	1.32
chain 5 F5M	1.02
chain 5 K7Q	0.0775
chain 5 K7L	0.178
chain 5 I3G	0.202
chain 5 N4W	0.0119
chain 5 I2A	1.4
chain 5 E6A	0.534
chain 5 F5L	1.17
chain 5 I3K	0.924
chain 5 I2R	1.11
chain 5 I3H	0.998
chain 5 N4M	0.00538
chain 5 I2T	1.39
chain 5 S1C	0.0634
chain 5 E6L	0.16

Variant	ratio to parent
chain 5 I3M	0.446
chain 5 N4R	0.317
chain 5 I3Y	1.08
chain 5 N4L	0.0593
chain 5 S1V	0.0256
chain 5 I2Y	0.656
chain 5 K7I	0.2
chain 5 L8I	1.07
chain 5 L8A	0.861
chain 5 S1T	0.278
chain 5 N4P	0.00841
chain 5 K7N	0.138
chain 5 S1P	0.0427
chain 5 F5R	1.18
chain 5 F5C	1.19
chain 5 L8K	1.09
chain 5 K7W	0.628
chain 5 L8C	0.613
chain 5 N4T	0.00841
chain 5 K7C	0.0252
chain 5 L8Y	1.07
chain 5 N4K	0.027
chain 5 S1A	0.746
chain 5 E6W	0.038
chain 5 L8P	0.718

Variant	ratio to parent
chain 5 N4D	0.009
chain 5 I3P	0.669
chain 5 F5P	1.17
chain 5 K7M	0.0863
chain 5 K7D	0.0219
chain 5 S1Y	0.795
chain 5 N4I	0.0714
chain 5 E6M	0.398
chain 5 E6H	0.25
chain 5 N4H	0.036
chain 5 I3S	1.06
chain 5 I3A	0.139
chain 5 I3F	0.726
chain 5 E6F	0.0998
chain 5 F5Y	1.3
chain 5 N4C	0.0356
chain 5 K7T	0.291
chain 5 F5D	0.591
chain 5 N4E	0.0143
chain 5 N4G	0.00595
chain 5 I3C	0.689
chain 5 F5T	1.38
chain 5 L8W	0.918
chain 5 K7F	0.0438
chain 5 L8E	0.691

Variant	ratio to parent
chain 5 L8R	0.918
chain 5 E6K	0.746
chain 5 S1D	0.675
chain 5 I3W	0.64
chain 5 S1Q	0.0873
chain 5 F5W	1.2
chain 5 E6C	0.0448
chain 5 I2W	0.693
chain 5 E6Y	0.119
chain 5 F5N	0.955
chain 5 K7A	0.383
chain 5 S1G	0.39
chain 5 I2G	1.2
chain 5 I2E	1.11
chain 5 N4A	0.0038
chain 5 I2K	1.12
chain 5 F5Q	0.757
chain 5 F5K	0.845
chain 5 I2H	0.785
chain 5 I2M	1.17
chain 5 E6R	0.632
chain 5 S1L	0.0092
chain 5 F5E	0.65
chain 5 E6P	0.329
chain 5 L8Q	0.977

Variant	ratio to parent
chain 5 I3V	0.724
chain 5 E6T	0.0683
chain 5 I3Q	0.383
chain 5 I3T	0.301
chain 5 E6I	0.0119
chain 5 F5A	1.01
chain 5 I2C	1.26
chain 5 S1R	0.223
chain 5 L8F	1.06
chain 5 K7S	0.689
chain 5 N4Q	0.00528
chain 5 F5I	1.02
chain 5 S1W	0.151
chain 5 N4V	0.00323
chain 5 K7Y	0.446
chain 5 I3L	1.05
chain 5 F5G	0.916
chain 5 L8V	0.886
chain 5 I2P	1.23
chain 5 I2L	1.38
chain 5 L8G	0.703
chain 5 I2Q	0.775
chain 5 I2D	1.37
chain 5 E6N	0.464
